Assay results as given in paper PMC10579713, “Melatonin enhances KCl salinity tolerance by maintaining K+ homeostasis in Malus hupehensis”.

T1: MdWRKY53 (Malus hupehensis (CDS amplified from; …, UniProt A0A498JJJ9 1-351)
T1 sequence: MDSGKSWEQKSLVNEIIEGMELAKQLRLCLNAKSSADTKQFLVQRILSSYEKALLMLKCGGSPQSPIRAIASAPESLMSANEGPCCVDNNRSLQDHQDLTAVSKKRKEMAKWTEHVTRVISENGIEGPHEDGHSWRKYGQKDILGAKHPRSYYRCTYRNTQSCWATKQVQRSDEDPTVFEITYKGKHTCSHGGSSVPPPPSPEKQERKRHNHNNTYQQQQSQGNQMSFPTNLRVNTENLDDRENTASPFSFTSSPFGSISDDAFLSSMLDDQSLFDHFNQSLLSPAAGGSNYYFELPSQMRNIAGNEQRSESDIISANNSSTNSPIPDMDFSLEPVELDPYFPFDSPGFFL


Target: T1, MdWRKY53
Assay: EMSA; unlabeled competitor reduced the binding; LightShift chemiluminescence EMSA kit (Thermo), manufacturer's instructions; buffer, salt, pH and temperature not stated
Conditions: protein: recombinant; tags: GST (N-terminal, pGEX6p-1); blunt

| Binder | binding result |
| --- | --- |
| MdNHX2 promoter W-box probe (dsDNA) DNA 1: TGCACACGTCTTTCGAAGTTGACCAGATCAGTGTGCTTTGA DNA 2: TCAAAGCACACTGATCTGGTCAACTTCGAAAGACGTGTGCA | binds |
| MdGORK1 promoter W-box probe (dsDNA) DNA 1: TTATGTCACCTTATGTTTTTGACACAATTTTTATAACGTTGACACAG DNA 2: CTGTGTCAACGTTATAAAAATTGTGTCAAAAACATAAGGTGACATAA | binds |
